Article PMC3457934

Target: in vitro assembled HIV-1 CA-NC complexes (HIV-1)
Assay: co-sedimentation; 5 µl in vitro assembled CA-NC particles incubated with 200 µl 293T cell lysate (capsid-binding buffer plus 1X PBS) at room temperature for 1 hour; spun through a 70% sucrose cushion at 100,000×g for 1 hour at 4°C; pellet (BOUND) and INPUT analysed by Western blotting (anti-GFP, anti-HA, anti-p24); fluorescent quantification of three independent experiments

Substance “GFP-RanBP2 (full-length Nup358/RanBP2 fused to GFP) (from UniProt P49792 1-3224) (natural protein)” has a ratio bound/input of 1.
In the case of “GFP-RanBP2-ΔCyp deletion mutant (from UniProt P49792 1-2786) (domain or fragment)”, the ratio bound/input is reported as 0.39.
